Results reported in the Human Domainome abundance scans (Beltran et al. 2025).
± gives the uncertainty stated by the source.

B1: Cold shock protein CspB, residues 1 to 66; numbered along this chain, P41016 (parent)
chain: MQRGKVKWFNNEKGYGFIEVEGGSDVFVHFTAIQGEGFKTLEEGQEVSFEIVQGNRGPQAANVVKL

Variants of: B1
Test: abundance fitness (aPCA) (normalised: wild type 0, dead -1); higher = more abundant; growth selection in yeast, the domain comes from the species named
Settings: Bacillus caldolyticus

Question: Which abundance fitness does the source give for V28T here?
Answer: -0.05 ± 0.047

Question: Which abundance fitness does the source give for V28Y here?
Answer: -0.27 ± 0.061

Question: For V28W, which abundance fitness is on record?
Answer: -0.675 ± 0.036

Question: For V28G, which abundance fitness is on record?
Answer: -0.638 ± 0.041

Question: For V28F, which abundance fitness is on record?
Answer: -0.062 ± 0.058

Question: With K7E as the variant, how does the abundance fitness read?
Answer: -0.225 ± 0.055

Question: For K7I, which abundance fitness is on record?
Answer: 0.02 ± 0.052

Question: Which abundance fitness does the source give for K7F here?
Answer: -0.3 ± 0.038

Question: With K7D as the variant, how does the abundance fitness read?
Answer: -0.199 ± 0.048

Question: For E36V, which abundance fitness is on record?
Answer: -0.003 ± 0.033

Question: For E36M, which abundance fitness is on record?
Answer: -0.085 ± 0.046

Question: For E36R, which abundance fitness is on record?
Answer: 0.006 ± 0.039

Question: For E36G, which abundance fitness is on record?
Answer: -0.004 ± 0.034

Question: With E12D as the variant, how does the abundance fitness read?
Answer: -0.021 ± 0.049

Question: With E12R as the variant, how does the abundance fitness read?
Answer: 0.049 ± 0.034

Question: Which abundance fitness does the source give for E12I here?
Answer: -0.198 ± 0.04

Question: For E12T, which abundance fitness is on record?
Answer: 0.034 ± 0.037

Question: For I33L, which abundance fitness is on record?
Answer: -0.082 ± 0.03

Question: Which abundance fitness does the source give for I33W here?
Answer: -0.462 ± 0.052

Question: With I33R as the variant, how does the abundance fitness read?
Answer: -0.484 ± 0.039

Question: For F38I, which abundance fitness is on record?
Answer: -0.041 ± 0.067

Question: With F38Q as the variant, how does the abundance fitness read?
Answer: -0.005 ± 0.064

Question: Which abundance fitness does the source give for F38R here?
Answer: -0.041 ± 0.031

Question: With F38W as the variant, how does the abundance fitness read?
Answer: 0.024 ± 0.046

Question: For F38V, which abundance fitness is on record?
Answer: -0.044 ± 0.03

Question: For F38C, which abundance fitness is on record?
Answer: -0.103 ± 0.058

Question: Which abundance fitness does the source give for G57N here?
Answer: -0.223 ± 0.066

Question: For G57T, which abundance fitness is on record?
Answer: -0.089 ± 0.049

Question: For G57S, which abundance fitness is on record?
Answer: -0.093 ± 0.036

Question: With G57I as the variant, how does the abundance fitness read?
Answer: -0.231 ± 0.045

Question: Which abundance fitness does the source give for G57Q here?
Answer: -0.116 ± 0.048

Question: For N10L, which abundance fitness is on record?
Answer: -0.069 ± 0.032

Question: For N10R, which abundance fitness is on record?
Answer: -0.031 ± 0.028

Question: For N10K, which abundance fitness is on record?
Answer: -0.038 ± 0.056

Question: With N10T as the variant, how does the abundance fitness read?
Answer: -0.118 ± 0.051

Question: Which abundance fitness does the source give for V26E here?
Answer: -0.372 ± 0.043

Question: For V26Y, which abundance fitness is on record?
Answer: -0.074 ± 0.054

Question: For V26F, which abundance fitness is on record?
Answer: -0.11 ± 0.054

Question: Which abundance fitness does the source give for V26Q here?
Answer: -0.173 ± 0.04

Question: Which abundance fitness does the source give for V26S here?
Answer: -0.195 ± 0.029

Question: Which abundance fitness does the source give for R3C here?
Answer: -0.076 ± 0.059

Question: Which abundance fitness does the source give for R3Q here?
Answer: -0.021 ± 0.041

Question: For R3Y, which abundance fitness is on record?
Answer: 0.027 ± 0.065

Question: With R3M as the variant, how does the abundance fitness read?
Answer: 0.019 ± 0.051

Question: With E46T as the variant, how does the abundance fitness read?
Answer: -0.053 ± 0.048

Question: With E46R as the variant, how does the abundance fitness read?
Answer: -0.014 ± 0.029

Question: For E46P, which abundance fitness is on record?
Answer: -0.023 ± 0.049

Question: With E46I as the variant, how does the abundance fitness read?
Answer: -0.071 ± 0.058

Question: For A60L, which abundance fitness is on record?
Answer: -0.636 ± 0.033

Question: Which abundance fitness does the source give for A60F here?
Answer: -0.79 ± 0.078

Question: With V52F as the variant, how does the abundance fitness read?
Answer: -0.029 ± 0.064

Question: For V52P, which abundance fitness is on record?
Answer: -0.514 ± 0.048

Question: Which abundance fitness does the source give for V52M here?
Answer: 0.038 ± 0.059

Question: With V52H as the variant, how does the abundance fitness read?
Answer: -0.033 ± 0.075

Question: With K39C as the variant, how does the abundance fitness read?
Answer: -0.08 ± 0.051

Question: For K39W, which abundance fitness is on record?
Answer: -0.194 ± 0.048

Question: With K39L as the variant, how does the abundance fitness read?
Answer: -0.059 ± 0.034

Question: Which abundance fitness does the source give for K39P here?
Answer: -0.149 ± 0.035

Question: With K39N as the variant, how does the abundance fitness read?
Answer: -0.077 ± 0.058

Question: With Y15L as the variant, how does the abundance fitness read?
Answer: -0.117 ± 0.026

Question: For Y15H, which abundance fitness is on record?
Answer: -0.089 ± 0.072

Question: With Y15M as the variant, how does the abundance fitness read?
Answer: -0.138 ± 0.047

Question: Which abundance fitness does the source give for Y15S here?
Answer: -0.22 ± 0.028

Question: With Y15R as the variant, how does the abundance fitness read?
Answer: -0.227 ± 0.025

Question: With Y15K as the variant, how does the abundance fitness read?
Answer: -0.189 ± 0.044

Question: With Y15A as the variant, how does the abundance fitness read?
Answer: -0.233 ± 0.052

Question: For Y15P, which abundance fitness is on record?
Answer: -0.885 ± 0.073

Question: With Y15Q as the variant, how does the abundance fitness read?
Answer: -0.19 ± 0.034

Question: With G4F as the variant, how does the abundance fitness read?
Answer: -0.866 ± 0.035

Question: For G4S, which abundance fitness is on record?
Answer: -0.109 ± 0.021

Question: Which abundance fitness does the source give for G4H here?
Answer: -0.409 ± 0.029

Question: With G4D as the variant, how does the abundance fitness read?
Answer: -0.891 ± 0.038

Question: With G4M as the variant, how does the abundance fitness read?
Answer: -0.997 ± 0.066

Question: With G4R as the variant, how does the abundance fitness read?
Answer: -0.537 ± 0.024

Question: With G4Q as the variant, how does the abundance fitness read?
Answer: -0.428 ± 0.035

Question: With G4E as the variant, how does the abundance fitness read?
Answer: -0.717 ± 0.048

Question: Which abundance fitness does the source give for E42H here?
Answer: 0.008 ± 0.11

Question: For E42L, which abundance fitness is on record?
Answer: -0.006 ± 0.031

Question: For E42T, which abundance fitness is on record?
Answer: -0.011 ± 0.052

Question: With E42Q as the variant, how does the abundance fitness read?
Answer: 0.043 ± 0.066

Question: Which abundance fitness does the source give for E42Y here?
Answer: -0.036 ± 0.059

Question: For E42I, which abundance fitness is on record?
Answer: -0.051 ± 0.055

Question: Which abundance fitness does the source give for E42A here?
Answer: 0.018 ± 0.041

Question: Which abundance fitness does the source give for M1S here?
Answer: -0.049 ± 0.049
